Data on 22 sequences can be found in the DeepSol protein solubility set.

The series can be described thus: soluble on expression in E. coli; label from the status in PepcDB or PDB records.
Turning to “MELLCCEGTRHAPRAGPDPRLLGDQRVLQSLLRLEERYVPRASYFQCVQREIKPHMRKMLAYWMLEVCEEQRCEEEVFPLAMNYLDRYLSCVPTRKAQLQLLGAVCMLLASKLRETTPLTIEKLCIYTDHAVSPRQLRDWEVLVLGKLKWDLAAVIAHDFLAFILHRLSLPRDRQALVKKHAQTFLALCATDYTFAMYPPSMIATGSIGAAVQGLGACSMSGDELTELLAGITGTEVDCLRACQEQIEAALRESLREASQTSSSPAPKAPRGSSSQGPSQTSTPTDVTAIHLLEHHHHHH”, the “soluble on expression in E. coli” value is reported as “not soluble”.
With “MGSDKIHHHHHHMNFTHKNLQRSYMAERTMVILDGGMGRELQRSGAPFRQPEWSALALSEAPEAVVGVHAAFIDAGAQVITSNSYAVVPFHIGEERFAAEGRQLAHIAGQLARHAADSGAHPVRVAGSLPPLFGSYRPDLFQPERVAEVLTPLLQGLAPHVDLWLAETQSSVAEVRAIHSHLPADGRPFWVSFTLQDEEVDEVPRLRSGEPVAEAIEAAVGLGVAAVLFNCSQPEVIGAAIDVARSVIERHNAEIAIGAYANAFPPQPKEATANDGLDELREDLDPPGYLAWAKDWRARGASMVGGCCGIGPEHIAELKRNLA” the entry was “not soluble”; with “MATHKPINILEAFAAAPPPLDYVLPNMVAGTVGALVSPGGAGKSMLALQLAAQIAGGPDLLEVGELPTGPVIYLPAEDPPTAIHHRLHALGAHLSAEERQAVADGLLIQPLIGSLPNIMAPEWFDGLKRAAEGRRLMVLDTLRRFHIEEENASGPMAQVIGRMEAIAADTGCSIVFLHHASKGAAMMGAGDQQQASRGSSVLVDNIRWQSYLSSMTSAEAEEWGVDDDQRRFFVRFGVSKANYGAPFADRWFRRHDGGVLKPAVLERQRKSKGVPRGEA”, “soluble”.
With “MSDKPEDENTNENPGRRRFLGGMAALGAGVTLSGYVSAHERPPAEAEKHHLVGPALDRALRENVKTVVVIYAENRSFNNLFGNFPGVQKPLSSVRPADYVQRDRNGTLLDKLPPAWGGVLQVGPQTVDGVTYPVGVQFQENLPNAPFPLKGPNAEDLPLSLVTRDLWHVFYQNQMQINDGKNDRFVAWADAGGLTMGNYAQTQYSLRLWDVAKEFVLCDNFFQGAFGGSFLNHQYLISATAPIYPNAADSPAKSQIASLQSMNPLDSRLKPLDKSPASAMEGPPQFGPSAITPDNYAVNTLAPPYWPTWLRDPQNPDYSKPDLANVLVPQSHEHIGDKLSKRNVDWAWYAGAWQVTLDEFKDSTGIPKIPNFQYHHQPFNYFKQQGPQNPEERKKRLRDGGLGDESSTNRFLADAEAGKLPAVAFYKPQGNLNMHAGYADVASGDRHIDRVIKVLRNSPQWDNMVIVVTVDENGGWWDHVAPPKGDRFGPGTRIPALVISPFARKGKVDHTVYDTASILRLITRVHGLEKLDGLKRRDEAMIARGQAPMGDLTNALHFPALEHHHHHH” the entry was “soluble”.
Regarding “MNIPKVQFNPKVHKNIGIEIIELSDIYKRSDDDLENFIAKPHRIKFHNILYITQGRGTHFIDFNTYTTQAGSVVFINKNQVHAFDLINQPQGKLIIFTDEYLDTILTTIKTPLSAHNYLLTSYSPTFSLSKKIRNTCDVLLTEIEKEYQVKDPNLNFLNLIFSAVLTKLSSERTRSFEQYLSESRTEKFMTFIELLEVNYTNTRDAKIYADMLHMTYKSLNQICKLATKQTTKQLIDAYIILEAKRKLSIENIRVQQLADELGFDEVTNFVKYFKKNTLLTPSQFKKLNQG”, the “soluble on expression in E. coli” value is recorded as “not soluble”.
Next, “MGSDKIHHHHHHMKKLRELTVEELFESFVLIKNADVRVAKNGKKFIAFTFQDTSGTIDGKYWDASEDEITRFTAGNVVLLNGKREVYQNKPQVKILHMRLATAEEPSQPSLYMERAPLKKEEMVEEINQVIFEITNAHWNRIVRYLMTKYQQEFYEFPAAKRNHHAFANGLAYHTVSMLRLGKAIAKEYTEINTSLLYAGIILHDLGKVLELSGAITTEYTVAGNLIGHLVLVDEEITKACLALKIDDREEDVVVLRHMVLAHHGLLEYGSPVRPRIMEAEILHQIDTMDASIQMMLGAIRQTQPGEYTERIFGLDNRSFYVPKDK”: “not soluble”; “MKVTVHAKNIELTNALKDCVEKKISKLSKYFEPGVEAKATLSVEKNKQIVEIMIPFNGILLRGEESTDDMYKSIDLVEEKIERQIRKQKTRLSKKNRYDSLRFAHIDPIEDMKEEKEAKIVKTKRFDVKPMGAEEAVLQMELIGHDFFVFQDPETNQLNVVYKRKDGNYGLIEPGLGEELEHHHHHH”: “soluble”; “MSLAESVFAERIVQNLLDTDFYKLTMMQAVLHNYPNAEVEWEFRCRNAEDLRPYLAEIRYQIERLAEVEVTADQLAFLERIPFMKPDFIRFLSLFRFNLRYVHTGIEDGQLAIRLRGPWLHVILFEVPLLAIVSEVRNRYRYREVVLEQVGEQLYRKLDWLSAQASSEELAEFQVADFGTRRRFSYRTQEEVVHILKRDFPGRFVGTSNVHLAREYDLKPIGTMAHEWLMAHQQLGPRLVDSQQAALDCWVREYRGQLGIALTDCITMDAFLDDFDLYFAKLFDGLRHDSGDPLAWAEKAIAHYRRLGIDPLSKTLVFSDGLDMPKALQLFRALRGKINVSFGIGTNLTCDIPGVEPMNIVLKMTACNGHPVAKISDAPGKTQCRDENFVAYLRHVFNVPAEGHHHHHH”: “soluble”.
Next, “MIAKTDSDIRHVTPSGGNVFADLGFHKQDAEKFYADSLNEIENTLAIKQQLMEEITLWITQNQMKQAEVATVLHISRPRVSDVVNKKCSKFTIDALVNMLSRIGKPVRVMVGP”: “not soluble”; “MGSDKIHHHHHHMSTPIGLGLPPTPPPVLAPRRKTRQLMVGKVGVGSDHPISVQSMTTTKTHDINGTLQQIAQLTATGCDIVRVACPKTVDAEALPIIAKKSPIPVIADIHFQPKYIFAAIDAGCAAVRVNPGNIKEFDGRVKEVAKAAGDAGIPIRIGVNGGSLDKRILDKYHGKATPEALVESAMWEAGLFEEHGFGDIAISVKHSDPVLMVEAYRQLAEQSDYPLHLGVTEAGPKFMGTIKSSVAFGALLSQGIGDTIRVSLSADPVEEIKVGDQILQSLNLRPRKLEIVSCPSCGRAQVDVYSLAEEVTEALDGMEVPLRVAVMGCVVNGPGEARDADLGVASGNGKGQIFVKGEVIKTVPESQIVETLIEEAMRIAEEMDPEVLAAASASGMKAEVKVTK”: “not soluble”.
“DPRLARLLGLHTQSRSAIVQALWQYVKTNRLQDSHDKEYINGDKYFQQIFDCPRLKFSEIPQRLTALLLP”: the “soluble on expression in E. coli” value is “soluble”.
Next, “MKLEGVWKVFGNVVAVRDVNLYIEDKEFVSILGPSGSGKTTLLYLIAGIYKPSRGRIYFNDVDVTDLPPNKRNIGLVFQNYALYPHMTVYENIAFPLRLRNFGEPAIKEKVLSVAKLLGIEGLLDRYPAQLSGGQQQRVALARALVKEPEVLLLDEPLSNLDALLRIKIRSELKKLQKELGITAIYVTHDQSEALAMADRIAIIASGVIQQVGKPWDVYYKPRNVFVASFIGTPPANLVSVPLDSSRRCLLLPGGGRYCPPRRIAEKLAAVKTNSVILGFRPEVAVLSESPLGDYVSMEAEVYTVETLGRENIVTLLVNGSQVKVIVPPVVEPRPGSRIFINIEEDKVMYFDPETEINVEYLEVPGMEEAIAESAGTLRKQEMEEEWD”: “soluble”.
“MKKIIFTFLILGNVYNFAAQKTLRTVEKCRVTSKGTTKDGKRFANCISLQSGKTFNFTGLVDQTYYKFSKGTIFKVYFYGNGNRNLTLETFDYIR”: the “soluble on expression in E. coli” value was “not soluble”.
On to “GLPRHSAVMERLRRRIELCRRHHSTCEARYEAVSPERLELERQHTFALHQRCIQAKAKRAGKH”, for which the “soluble on expression in E. coli” value is recorded as “soluble”.
Next, “SMQELFNNLMELCKDSQRKFFYSDDVSASGRTYRIFSYNYASYSDWLLPDALECRGIMFEMDGEKPVRIASRPMEKFFNLNENPFTMNIDLNDVDYILTKEDGSLVSTYLDGDEILFKSKGSIKSEQALMANGILMNINHHRLRDRLKELAEDGFTANFEFVAPTNRIVLAYQEMKIILLNVRENETGEYISYDDIYKDATLRPYLVERYEIDSPKWIEEAKNAENIEGYVAVMKDGSHFKIKSDWYVSLHSTKSSLDNPEKLFKTIIDGASDDLKAMYADDEYSYRKIEAFETTYLKYLDRALFLVLDCHNKHCGKDRKTYAMEAQGVAKGAGMDHLFGIIMSLYQGYDSQEKVMCEIEQNFLKNYKKFIPEGY”: “soluble”; “MGSDKIHHHHHHMKRKRIDGMNIEIITATIDMLEEIVAIQTAAFSEREPMTMSLNFTKEEMYDYFLKIIPESINSGLTMAAVDEDKGAIAAVVICFDAFAVFPNMEWTQKEIDGISKTNIFFEELEKPLNTNPAFKPEKCVRLMYVSTDENYLRRGIARKLGESMINRAIDLGYELMIADATNINSAGMFEKLGFWQEKVLPYKLVEKDGLKAFGNVEGECILYSRYLQENCFS”: “not soluble”.
Next, “MIELIDPISKQRLEESPEGLRNENGIVVYPLINGAYRVAASDNYTSNFGLEWNTFQKTQIDKFSGNTVSEERLFAQTNWQKNGLEGETILEVGSGAGRFSQIMLDHTKATLYSVDYSEAVEANYRNNGPHERFKLFQASIYELPFKQASFDRVICLGVLQHTPDFKASVKALVEMVKPGGELVIDFYPIRNVFTKVHGKYLLRPILKRVNHHRLMSLIRNNIDFLISIYTFNRRIGLGVFNRFVPICEIERTLPKGMTPEQLKEWIILDTFDMFSPEYDQPQRLSTVAKWVKEFGMADVDASWVTYHGKLEAPTVRGRKVLEHHHHHH”: “soluble”; “MIDPVGLPDTFVRIVLVGSGNLATQTALALSEAASPPVQVWSRNAEHAERLASMLPGATATDRTEELLCDAELYLLAVSDHALESVAATLPPTSGIWAHTAGSMPMDTLRPYHAQIGVFYPLQTFSRERRVDYSSIPIYIEGNDESVVRLLESVARLISRNVLRCTSEQRLYLHLAAVFACNFTNHLYALSEQMLAAHGLPPRSLAPLIAETAAKVQEMSATEAQTGPAKRDDTNTLQKHLGLLNPYPDWQEIYRILSDSIRKMYGPKEQ”: “not soluble”.
With “ETDKKGENAPDTKRIKETLEKFSLENMRYVGILKSGQKVSGFIEAEGYVYTVGVGNYLGQNYGRIESITDDSIVLNELIEDSTGNWVSRKAELLLNSSDKNTEQAAAPAAEQN” the entry was “soluble”.
Take “MCTGLALETKDGLHLFGRNMDIEYSFNQSIIFIPRNFKCVNKSNKKELTTKYAVLGMGTIFDDYPTFADGMNEKGLGCAGLNFPVYVSYSKEDIEGKTNIPVYNFLLWVLANFSSVEEVKEALKNANIVDIPISENIPNTTLHWMISDITGKSIVVEQTKEKLNVFDNNIGVLTNSPTFDWHVANLNQYVGLRYNQVPEFKLGDQSLTALGQGTGLVGLPGDFTPASRFIRVAFLRDAMIKNDKDSIDLIEFFHILNNVAMVRGSTRTVEEKSDLTQYTSCMCLEKGIYYYNTYENNQINAIDMNKENLDGNEIKTYKYNKTLSINHVN”: the “soluble on expression in E. coli” value is given as “soluble”.
With “GPGSMWGRYVRVCTREQHSRKQLTSAGVPQGGVPGPKLFLHCVDDLLHRMDNIYSASAFMHADDLKLVASGADIHACAAAMQPALPLITKWAAEHSLKINVAKSESALFHISSHTRSDEDMVDLLPGNGNLRIQSCPVRLLDTTFDRLLNFGPHASTAAKRTMPRRYQLRPVAQAGASHHNTQSFSIGYVHIVLFHNGDAILPCFAHIYLHNMEVRYRDGRKTFLA” the entry was “not soluble”; with “MLEFFDEDFDNMALVEGALELNKSVNPETNVHWAKQELERLYQEAEATLIHETDEEQRFDSFLRLFFHEWGFKGDDQEYFISDNSFIDKVLERKKGIPVSLGAILLYLGNRLGFPMKGVTFPTQFLIKVDWMHKTPDYINPFNGEYVGEKILQAWLIGQEGPLAQLKPEHFDEADNPTVIGRWLALIKSAMLREERYTLALRCTNLALTFVPDDPYEIRDRGFIFQQLECHQVAVSDFQYFIDQCPDDPASELLKSQVNAMSEKHVTLHLEHHHHHH”, “soluble”.
